Test [1] addresses recombinant NgAgo-His (Natronobacterium gregoryi). Kind of test: SPR. For orientation: Surface plasmon resonance follows binding to a sensor surface in real time, without labels.
Test [2] deals with recombinant E. coli recA, His-tagged (E. coli) (UniProt P0A7G6). Kind of test: SPR.

The Kd is the free concentration of one partner at which half of the binding sites on the other are occupied at equilibrium, for simple one-to-one binding. For orientation: koff means the rate constant with which the complex falls apart. By kon is commonly meant the rate constant with which the complex forms. Turning to “recombinant E. coli recA, His-tagged (from UniProt P0A7G6 1-353) (natural protein)”, in test [1], the Kd stood at 42.4 nM, the koff came out at 0.00024 s⁻¹ and the kon was 5740 M⁻¹ s⁻¹.
recombinant NgAgo-His (natural protein): in test [2], the Kd was 30.6 nM, the koff was 0.000707 s⁻¹ and the kon came to 23200 M⁻¹ s⁻¹.

The values are drawn from publication PMC6468240.
